B1: FLAG-tagged BAAT1 (full length) (other)
chain: MDPECAQLLPALCAVLVDPGQPVADDTCLEKLLDWFKTVTEGESSVVLLQEHPCLVELLSHVLKVQDLSSGVLSFSLRLAGTFAAQENCFQYLQQGELLPGLFGEPGPLGRATWAVPTVRSGWIQGLRSLAQHPSALRFLADHGAVDTIFSLQGDSSLFVASAASQLLVHVLALSMRGGAEGQPCLPGGDWPACAQKIMDHVEESLCSAATPKVTQALNVLTTTFGRCQSPWTEALWVRLSPRVACLLERDPIPAAHSFVDLLLCVARSPVFSSSDGSLWETVARALSCLGPTHMGPLALGILKLEHCPQALRTQAFQVLLQPLACVLKATVQAPGPPGLLDGTADDATTVDTLLASKSSCAGLLCRTLAHLEELQPLPQRPSPWPQASLLGATVTVLRLCDGSAAPASSVGGHLCGTLAGCVRVQRAALDFLGTLSQGTGPQELVTQALAVLLECLESPGSSPTVLKKAFQATLRWLLSSPKTPGCSDLGPLIPQFLRELFPVLQKRLCHPCWEVRDSALEFLTQLSRHWGGQADFRCALLASEVPQLALQLLQDPESYVRASAVTAMGQLSSQGLHAPTSPEHAEARQSLFLELLHILSVDSEGFPRRAVMQVFTEWLRDGHADAAQDTEQFVATVLQAASRDLDWEVRAQGLELALVFLGQTLGPPRTHCPYAVALPEVAPAQPLTEALRALCHVGLFDFAFCALFDCDRPVAQKSCDLLLFLRDKIASYSSLREARGSPNTASAEATLPRWRAGEQAQPPGDQEPEAVLAMLRSLDLEGLRSTLAESSDHVEKSPQSLLQDMLATGGFLQGDEADCY
notes: Transiently expressed in 293T cells; the clone used was IMAGE BC015632; also called FLAG-BAAT1; not shown: FLAG tag

What was measured:
[1] = target: T1, BRCA1 (endogenous, from human cell lysates) (human, UniProt P38398 1-1863); assay: immunoprecipitation with anti BRCA1 21A1 from 293T cells, anti FLAG blot
T1 construct: Endogenous cellular protein immunoprecipitated with anti BRCA1 antibodies C-20 or 21A1; also called breast cancer susceptibility gene 1 protein; endogenous BRCA1
Excerpt: (§1) GST-BRCA1 fragments were precipitated with GSH beads and samples were immunoblotted with anti FLAG antibody. […] After immunoprecipitation with anti BRCA1 21A1 antibody, samples were immunoblotted with FLAG antibody. […] NS: non-specific signals. […] Two different anti BRCA1 antibodies (C-20 and 21A1) and anti ATM antibodies (N-17 and 2C1) were used for the assay.

[2] = target: T1, BRCA1 (endogenous, from human cell …); assay: co-immunoprecipitation of endogenous proteins from HeLa cells
Method: as §1
(§2) Co-Immunoprecipitation and GST Pull-Down Assays: HeLa or NMEs cells were lysed for 30 min in 500 ml of lysis buffer (50 mM Tris-HCl pH 7.5, 100 mM NaCl, 0.5% NP-40, 0.5% DOC, 5 mM EDTA, and protease inhibitors: 100 mg/ml PMSF, 2 mg/ml Aprotinin, 2 mg/ml Leupeptin). One milligram of total cell lysates was incubated with 10 mg/ml of ethidium bromide and the primary antibody for 3 h followed by incubation with either Protein A or Protein G agarose beads overnight at 4° C. The immunocomplexes were separated on SDS-PAGE gels and visualized by Western blotting. […] After pulldown with GSH beads, samples were separated in SDS-polyacrylamide gel and visualized by Western blotting.

[3] = target: B1; assay: GST pulldown from co-transfected 293T cells, anti FLAG blot
Method: as §1, §2

B1: binds [1].

B2: BAAT1 (endogenous, from human cell lysates) (other)
chain: MDPECAQLLPALCAVLVDPGQPVADDTCLEKLLDWFKTVTEGESSVVLLQEHPCLVELLSHVLKVQDLSSGVLSFSLRLAGTFAAQENCFQYLQQGELLPGLFGEPGPLGRATWAVPTVRSGWIQGLRSLAQHPSALRFLADHGAVDTIFSLQGDSSLFVASAASQLLVHVLALSMRGGAEGQPCLPGGDWPACAQKIMDHVEESLCSAATPKVTQALNVLTTTFGRCQSPWTEALWVRLSPRVACLLERDPIPAAHSFVDLLLCVARSPVFSSSDGSLWETVARALSCLGPTHMGPLALGILKLEHCPQALRTQAFQVLLQPLACVLKATVQAPGPPGLLDGTADDATTVDTLLASKSSCAGLLCRTLAHLEELQPLPQRPSPWPQASLLGATVTVLRLCDGSAAPASSVGGHLCGTLAGCVRVQRAALDFLGTLSQGTGPQELVTQALAVLLECLESPGSSPTVLKKAFQATLRWLLSSPKTPGCSDLGPLIPQFLRELFPVLQKRLCHPCWEVRDSALEFLTQLSRHWGGQADFRCALLASEVPQLALQLLQDPESYVRASAVTAMGQLSSQGLHAPTSPEHAEARQSLFLELLHILSVDSEGFPRRAVMQVFTEWLRDGHADAAQDTEQFVATVLQAASRDLDWEVRAQGLELALVFLGQTLGPPRTHCPYAVALPEVAPAQPLTEALRALCHVGLFDFAFCALFDCDRPVAQKSCDLLLFLRDKIASYSSLREARGSPNTASAEATLPRWRAGEQAQPPGDQEPEAVLAMLRSLDLEGLRSTLAESSDHVEKSPQSLLQDMLATGGFLQGDEADCY
notes: Endogenous cellular protein detected with the anti-BAAT1 antibody; also called endogenous BAAT1; hBAAT1
B2: binds [2].

B3: FLAG-tagged C-terminal BAAT1 (amino acids 176-821) (other)
chain: MRGGAEGQPCLPGGDWPACAQKIMDHVEESLCSAATPKVTQALNVLTTTFGRCQSPWTEALWVRLSPRVACLLERDPIPAAHSFVDLLLCVARSPVFSSSDGSLWETVARALSCLGPTHMGPLALGILKLEHCPQALRTQAFQVLLQPLACVLKATVQAPGPPGLLDGTADDATTVDTLLASKSSCAGLLCRTLAHLEELQPLPQRPSPWPQASLLGATVTVLRLCDGSAAPASSVGGHLCGTLAGCVRVQRAALDFLGTLSQGTGPQELVTQALAVLLECLESPGSSPTVLKKAFQATLRWLLSSPKTPGCSDLGPLIPQFLRELFPVLQKRLCHPCWEVRDSALEFLTQLSRHWGGQADFRCALLASEVPQLALQLLQDPESYVRASAVTAMGQLSSQGLHAPTSPEHAEARQSLFLELLHILSVDSEGFPRRAVMQVFTEWLRDGHADAAQDTEQFVATVLQAASRDLDWEVRAQGLELALVFLGQTLGPPRTHCPYAVALPEVAPAQPLTEALRALCHVGLFDFAFCALFDCDRPVAQKSCDLLLFLRDKIASYSSLREARGSPNTASAEATLPRWRAGEQAQPPGDQEPEAVLAMLRSLDLEGLRSTLAESSDHVEKSPQSLLQDMLATGGFLQGDEADCY
notes: Expressed in 293T cells; co-precipitated with BRCA1 by the anti BRCA1 21A1 antibody and blotted with anti FLAG; not shown: FLAG tag
B3: binds [1].

B4: GST-tagged BRCA1 BRCT domains, breast cancer-associated mutant Met1775Arg (other, UniProt P38398 1560-1863, looked up)
chain: GTPYLESGISLFSDDPESDPSEDRAPESARVGNIPSSTSALKVPQLKVAESAQSPAAAHTTDTAGYNAMEESVSREKPELTASTERVNKRMSMVVSGLTPEEFMLVYKFARKHHITLTNLITEETTHVVMKTDAEFVCERTLKYFLGIAGGKWVVSYFWVTQSIKERKMLNEHDFEVRGDVVNGRNHQGPKRARESQDRKIFRGLEICCYGPFTNRPTDQLEWMVQLCGASVVKELSSFTLGTGVHPIVVVQPDAWTEDNGFHAIGQMCEAPVVTREWVLDSVALYQCQELDTYLIPQIPHSHY
notes: domain: BRCT domains; also called M1775R; not shown: GST tag
B4: no binding [3].

From patent US20070072210A1 (published 2007)
